39 molecules from patent US20220056125A1 (CEPHALON, published 2022) can be followed below.

Numbering of substitutions follows the chain as printed. Where “and” joins values, the source holds several entries; their conditions need not be identical. Equal entries are not always repeated.

T1: human PAR-2 (human, UniProt P55085 26-397)
T1 sequence: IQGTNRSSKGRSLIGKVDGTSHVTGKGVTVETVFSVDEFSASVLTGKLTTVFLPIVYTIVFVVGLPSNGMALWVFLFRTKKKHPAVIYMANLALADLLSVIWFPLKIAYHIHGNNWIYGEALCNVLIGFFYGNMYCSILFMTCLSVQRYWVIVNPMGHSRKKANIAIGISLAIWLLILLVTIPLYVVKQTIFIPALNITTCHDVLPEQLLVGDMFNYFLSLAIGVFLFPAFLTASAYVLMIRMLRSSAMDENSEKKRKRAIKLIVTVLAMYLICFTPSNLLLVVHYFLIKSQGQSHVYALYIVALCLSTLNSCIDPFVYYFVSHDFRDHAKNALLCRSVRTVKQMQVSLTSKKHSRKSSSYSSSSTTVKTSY

B1: P24E915 (antibody, human IgG4 S228P, kappa, V domains shown)
VH: QVQLVQSGAEVKKPGSSVKVSCKASGFSLSSYAISWVRQAPGQGLEWMGVIWGNGNTYYAQKFQGRVTITADESTSTAYMELSSLRSEDTAVYYCARWKGYKDYPFDYWGQGTLVTVSS
VL: EIVLTQSPATLSLSPGERATLSCKASQNVYKWLDWYQQKPGQAPRLLIYNAYSLATGIPARFSGSGSGRDFTLTISSLEPEDFAVYYCQQHNSGWTFGGGTKVEIKR
B2: P24E61 (antibody, human IgG4 S228P, kappa, V domains shown)
VH: B1 VH with S30N, A33G, I34V, S35I, A60N, K99R
VL: B1 VL with V29I, W32F, A51T, Y52N, A55H, Q89L
B3: P24E977 (antibody, human IgG4 S228P, kappa, V domains shown)
VH: B1 VH with G55Q, T57V
VL: B1 VL with K24R, N50D, L54R, N92H
B4: P24E933 (antibody, human IgG4 S228P, kappa, V domains shown)
VH: B1 VH
VL: B1 VL with K24R, L54R, N92G
B5: P24E920 (antibody, human IgG4 S228P, kappa, V domains shown)
VH: B1 VH with K99R, Y101F
VL: B1 VL with K24R, L54R
B6: P24E975 (antibody, human IgG4 S228P, kappa, V domains shown)
VH: B1 VH with G55Q, T57V
VL: B1 VL with K24R, L54R, N92H, S93H
B7: P24E41 (antibody, human IgG4 S228P, kappa, V domains shown)
VH: B1 VH with S30N, A33G, I34V, S35I, A60N, K99R
VL: B1 VL with V29I, W32Y, N50D, Y52S, S53N, L54R, Q89L
B8: P24E916 (antibody, human IgG4 S228P, kappa, V domains shown)
VH: B1 VH
VL: B1 VL with K24R, L54R
B9: P24E219 (antibody, human IgG4 S228P, kappa, V domains shown)
VH: B1 VH with S30N, A33G, I34G, S35I, A60N, K99R
VL: B1 VL with V29I, W32Y, A51T, Y52N, A55H, Q89L
B10: P24E216 (antibody, human IgG4 S228P, kappa, V domains shown)
VH: B1 VH with S30N, S31Y, A33G, I34V, S35I, A60N, K99R
VL: B1 VL with V29I, W32Y, A51T, Y52N, A55H, Q89L
B11: P24E22 (antibody, human IgG4 S228P, kappa, V domains shown)
VH: B1 VH with S30N, A33G, I34V, S35I, K99R
VL: B1 VL with V29I, W32Y, A51T, Y52N, A55H, Q89L
B12: P24E922 (antibody, human IgG4 S228P, kappa, V domains shown)
VH: B1 VH with K99R, Y101W
VL: B1 VL with K24R, V29I
B13: P24E232 (antibody, human IgG4 S228P, kappa, V domains shown)
VH: B1 VH with S30N, A33G, I34V, S35I, A60G, K99R
VL: B1 VL with V29I, W32Y, A51T, Y52N, A55H, Q89L
B14: P24E971 (antibody, human IgG4 S228P, kappa, V domains shown)
VH: B1 VH with T57V
VL: B1 VL with K24R, L54R, N92H
B15: P24E972 (antibody, human IgG4 S228P, kappa, V domains shown)
VH: B1 VH with T57V
VL: B1 VL with K24R, L54R, N92H, S93H
B16: P24E279 (antibody, human IgG4 S228P, kappa, V domains shown)
VH: B1 VH with A33G, I34V, S35I, K99R
VL: B1 VL with K24R, V29I, W32Y, A51T, Y52N, Q89L
B17: P24E233 (antibody, human IgG4 S228P, kappa, V domains shown)
VH: B1 VH with S30N, A33G, I34V, S35I, A60Y, K99R
VL: B1 VL with V29I, W32Y, A51T, Y52N, A55H, Q89L
B18: P24E934 (antibody, human IgG4 S228P, kappa, V domains shown)
VH: B1 VH with T57V, Y104H
VL: B1 VL with K24R, L54R, N92H
B19: P24E917 (antibody, human IgG4 S228P, kappa, V domains shown)
VH: B1 VH
VL: B1 VL with N92G
B20: P24E936 (antibody, human IgG4 S228P, kappa, V domains shown)
VH: B1 VH with T57V, Y104H
VL: B1 VL with K24R, L54R, N92G, S93H
B21: P24E930 (antibody, human IgG4 S228P, kappa, V domains shown)
VH: B1 VH with T57V
VL: B1 VL with K24R, L54R, N92G
B22: P24E924 (antibody, human IgG4 S228P, kappa, V domains shown)
VH: B1 VH with K99R, Y101W
VL: B1 VL with K24R, L54R
B23: P24E40 (antibody, human IgG4 S228P, kappa, V domains shown)
VH: B1 VH with S30N, A33G, I34V, S35I, A60N, K99R
VL: B1 VL with V29I, W32Y, A51T, Y52N, Q89L
B24: P24E978 (antibody, human IgG4 S228P, kappa, V domains shown)
VH: B1 VH with G55Q, T57V
VL: B1 VL with K24R, N50D, L54R, N92H, S93H
B25: P24E60 (antibody, human IgG4 S228P, kappa, V domains shown)
VH: B1 VH with S30N, A33G, I34V, S35I, A60N, K99R
VL: B1 VL with V29I, A51T, Y52N, A55H, Q89L
B26: P24E923 (antibody, human IgG4 S228P, kappa, V domains shown)
VH: B1 VH with K99R, Y101W
VL: B1 VL
B27: P24E921 (antibody, human IgG4 S228P, kappa, V domains shown)
VH: B1 VH with K99R, Y101F
VL: B1 VL with N92G
B28: P24E953 (antibody, human IgG4 S228P, kappa, V domains shown)
VH: B1 VH with G55Q, T57V
VL: B1 VL with K24R, N50D, L54R, N92G
B29: P24E9 (antibody, human IgG4 S228P, kappa, V domains shown)
VH: B1 VH with A33G, I34V, S35I, A60N, K99R
VL: B1 VL with V29I, W32Y, A51T, Y52N, A55H, Q89L
B30: P24E278 (antibody, human IgG4 S228P, kappa, V domains shown)
VH: B1 VH with A33G, I34V, S35I, K99R
VL: B1 VL with V29I, W32Y, A51T, Y52N, Q89L
B31: P24E951 (antibody, human IgG4 S228P, kappa, V domains shown)
VH: B1 VH with G55Q, T57V
VL: B1 VL with K24R, L54R, N92G
B32: P24E932 (antibody, human IgG4 S228P, kappa, V domains shown)
VH: B1 VH with T57V
VL: B1 VL with K24R, V29I
B33: P24E280 (antibody, human IgG4 S228P, kappa, V domains shown)
VH: B1 VH with A33G, I34V, S35I, K99R
VL: B1 VL with W32Y, A51T, Y52N, Q89L
B34: P24E931 (antibody, human IgG4 S228P, kappa, V domains shown)
VH: B1 VH with T57V
VL: B1 VL with N92G
B35: P24E186 (antibody, human IgG4 S228P, kappa, V domains shown)
VH: B1 VH with S30N, A33G, I34V, S35I, A60N, K99R, Y101W
VL: B1 VL with V29I, W32Y, A51T, Y52N, A55H, Q89L
B36: P24E973 (antibody, human IgG4 S228P, kappa, V domains shown)
VH: B1 VH with T57V
VL: B1 VL with K24R, L54R, N92G, S93H
B37: P24E919 (antibody, human IgG4 S228P, kappa, V domains shown)
VH: B1 VH with K99R, Y101F
VL: B1 VL
B38: P24E918 (antibody, human IgG4 S228P, kappa, V domains shown)
VH: B1 VH with K99R, Y101F
VL: B1 VL with K24R, V29I
B39: P24E935 (antibody, human IgG4 S228P, kappa, V domains shown)
VH: B1 VH with T57V, Y104H
VL: B1 VL with K24R, L54R, N92H, S93H

In this test the target is T1, human PAR-2. The experiment in a line: cell-based or functional assay.
B1: the “PAR-2 β-arrestin cell based assay IC50, 2 µM SLIGKV” value was found to be 1.16 nM.
As to B2, the “PAR-2 β-arrestin cell based assay IC50, 1 µM SLIGKV” value is 2.56 nM.
As to B3, the “PAR-2 β-arrestin cell based assay IC50, 2 µM SLIGKV” value was determined as 1.73 nM.
For B4, the “PAR-2 β-arrestin cell based assay IC50, 2 µM SLIGKV” value came out at 1.4 nM.
For B5, the “PAR-2 β-arrestin cell based assay IC50, 2 µM SLIGKV” value amounted to 1.32 nM.
Take B6: the “PAR-2 β-arrestin cell based assay IC50, 2 µM SLIGKV” value is 0.75 nM.
Turning to B7, the “PAR-2 β-arrestin cell based assay IC50, 1 µM SLIGKV” value is 26.9 nM.
Take B8: the “PAR-2 β-arrestin cell based assay IC50, 2 µM SLIGKV” value worked out at 1.1 nM.
Take B9: the “PAR-2 β-arrestin cell based assay IC50, 1 µM SLIGKV” value stood at 1.33 nM.
Consider B10, for which the “PAR-2 β-arrestin cell based assay IC50, 1 µM SLIGKV” value was found to be 1.95 nM.
For the molecule B11, the “PAR-2 β-arrestin cell based assay IC50, 1 µM SLIGKV” value worked out at 2.5 nM.
Turning to B12, the “PAR-2 β-arrestin cell based assay IC50, 2 µM SLIGKV” value came to 1.01 nM.
In the case of B13, the “PAR-2 β-arrestin cell based assay IC50, 1 µM SLIGKV” value stood at 1.99 nM.
On to B14, for which the “PAR-2 β-arrestin cell based assay IC50, 2 µM SLIGKV” value turned out to be 2.4 nM.
On to B15, for which the “PAR-2 β-arrestin cell based assay IC50, 2 µM SLIGKV” value was found to be 1.52 nM.
Regarding B16, the “PAR-2 β-arrestin cell based assay IC50, 2 µM SLIGKV” value is 2.8 nM.
As for B17, the “PAR-2 β-arrestin cell based assay IC50, 1 µM SLIGKV” value was 1.77 nM.
B18: the “PAR-2 β-arrestin cell based assay IC50, 2 µM SLIGKV” value was 1.5 nM.
On to B19, for which the “PAR-2 β-arrestin cell based assay IC50, 2 µM SLIGKV” value is 0.93 nM.
For B20, the “PAR-2 β-arrestin cell based assay IC50, 2 µM SLIGKV” value worked out at 1.8 nM.
Regarding B21, the “PAR-2 β-arrestin cell based assay IC50 (SLIGKV mark missing)” value was found to be 1.7 nM and the “PAR-2 β-arrestin cell based assay IC50, 2 µM SLIGKV” value was found to be 1.4 nM.
For the molecule B22, the “PAR-2 β-arrestin cell based assay IC50, 2 µM SLIGKV” value is 0.79 nM.
As to B23, the “PAR-2 β-arrestin cell based assay IC50, 1 µM SLIGKV” value was determined as 2.47 nM.
Take B24: the “PAR-2 β-arrestin cell based assay IC50, 2 µM SLIGKV” value came to 0.94 nM.
Regarding B25, the “PAR-2 β-arrestin cell based assay IC50, 1 µM SLIGKV” value was 2.03 nM.
Take B26: the “PAR-2 β-arrestin cell based assay IC50, 2 µM SLIGKV” value was found to be 0.99 nM.
For B27, the “PAR-2 β-arrestin cell based assay IC50, 2 µM SLIGKV” value was 1.9 nM.
Consider B28, for which the “PAR-2 β-arrestin cell based assay IC50, 2 µM SLIGKV” value is 3.64 nM and 1.84 nM.
As for B29, the “PAR-2 β-arrestin cell based assay IC50, 1 µM SLIGKV” value was 11.3 nM.
Consider B30, for which the “PAR-2 β-arrestin cell based assay IC50, 2 µM SLIGKV” value is 2.5 nM.
Take B31: the “PAR-2 β-arrestin cell based assay IC50, 2 µM SLIGKV” value is 2.55 nM and 1.17 nM.
As for B32, the “PAR-2 β-arrestin cell based assay IC50, 2 µM SLIGKV” value came out at 1.4 nM.
Turning to B33, the “PAR-2 β-arrestin cell based assay IC50, 2 µM SLIGKV” value is 1.9 nM.
As to B34, the “PAR-2 β-arrestin cell based assay IC50, 2 µM SLIGKV” value was determined as 2 nM.
Regarding B35, the “PAR-2 β-arrestin cell based assay IC50, 1 µM SLIGKV” value is 3.25 nM.
Turning to B36, the “PAR-2 β-arrestin cell based assay IC50, 2 µM SLIGKV” value stood at 2.35 nM.
On to B37, for which the “PAR-2 β-arrestin cell based assay IC50, 2 µM SLIGKV” value worked out at 1.44 nM.
In the case of B38, the “PAR-2 β-arrestin cell based assay IC50, 2 µM SLIGKV” value was 1.18 nM.
Consider B39, for which the “PAR-2 β-arrestin cell based assay IC50, 2 µM SLIGKV” value worked out at 1.5 nM.
